Experimental data as given in patent US20120219551A1.

Columns and labels:
CD32A-G2Ag (human) = CD32A-G2Ag (human) (UniProt P12318); experiment: relative off-rate wt/variant; method not given (BIAcore elsewhere)
CD16A(F158) (human) = CD16A(F158) (human) (UniProt P08637); experiment: as above
CD16A(V158) (human) = CD16A(V158) (human) (UniProt P08637); experiment: as above
CD32B-G2Ag (human) = CD32B-G2Ag (human) (UniProt P31994); experiment: as above
[1] = biological target: FcγRIIB, soluble dimeric protein (extracellular domain fused to the hinge-CH2-CH3 domain of human IgG2) (human) (UniProt P31994); experiment: ELISA
Sequence of FcγRIIB, soluble dimeric protein (extracellular domain fused to the hinge-CH2-CH3 domain of human IgG2) (human) (P31994 43-217): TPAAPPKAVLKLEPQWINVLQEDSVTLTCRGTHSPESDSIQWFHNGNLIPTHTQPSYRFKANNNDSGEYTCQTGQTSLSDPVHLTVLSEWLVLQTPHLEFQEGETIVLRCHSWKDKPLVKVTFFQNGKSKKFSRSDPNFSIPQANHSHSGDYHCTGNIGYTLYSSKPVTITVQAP

[2] = biological target: FcγRIIIA, soluble monomeric protein (extracellular region joined to the linker-AVITAG sequence) (human) (UniProt P08637); experiment: ELISA
Sequence of FcγRIIIA, soluble monomeric protein (extracellular region joined to the linker-AVITAG sequence) (human) (P08637 17-208 F176V limits assumed): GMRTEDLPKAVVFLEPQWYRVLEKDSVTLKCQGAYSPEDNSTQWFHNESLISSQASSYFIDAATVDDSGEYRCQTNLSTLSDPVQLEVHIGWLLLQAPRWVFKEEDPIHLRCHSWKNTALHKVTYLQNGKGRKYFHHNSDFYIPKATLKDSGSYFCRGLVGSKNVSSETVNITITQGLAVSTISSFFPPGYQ

[3] = biological target: soluble dimeric FcγRIIB-Fc fusion protein (extracellular domain of FcγRIIB fused to hinge-CH2-CH3 of human IgG2) (human) (UniProt P31994); experiment: SPR (BIAcore), Fc mutant in ch4-4-20, off rate relative to wild type
Sequence of soluble dimeric FcγRIIB-Fc fusion protein (extracellular domain of FcγRIIB fused to hinge-CH2-CH3 of human IgG2) (human) (P31994 43-217): as the sequence (P31994 43-217) above

[4] = biological target: soluble monomeric FcγRIIIA 158V (extracellular region joined to linker-AVITAG) (human) (UniProt P08637); experiment: as above
Sequence of soluble monomeric FcγRIIIA 158V (extracellular region joined to linker-AVITAG) (human) (P08637 17-208 F176V): as the sequence (P08637 17-208 F176V limits assumed) above

[5] = biological target: FcγRIIIA on natural killer cells of human donor PBMC (human) (UniProt P08637); experiment: cell-based or functional assay
Sequence of FcγRIIIA on natural killer cells of human donor PBMC (human) (P08637 17-254): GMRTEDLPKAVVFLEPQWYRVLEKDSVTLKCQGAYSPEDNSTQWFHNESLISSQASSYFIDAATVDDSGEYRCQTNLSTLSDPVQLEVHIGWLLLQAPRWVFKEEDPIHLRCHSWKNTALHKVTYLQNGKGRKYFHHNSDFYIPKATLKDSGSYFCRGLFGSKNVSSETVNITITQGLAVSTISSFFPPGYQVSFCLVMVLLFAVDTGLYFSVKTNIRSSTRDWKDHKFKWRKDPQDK

[6] = biological target: soluble dimeric FcγRIIB-Fc fusion protein (extracellular domain of FcγRIIB fused to hinge-CH2-CH3 of human IgG2) (human) (UniProt P31994); experiment: ELISA
[7] = biological target: soluble monomeric FcγRIIIA (extracellular region of FcγRIIIA joined to the linker-AVITAG sequence) (human) (UniProt P08637); experiment: ELISA
Sequence of soluble monomeric FcγRIIIA (extracellular region of FcγRIIIA joined to the linker-AVITAG sequence) (human) (P08637 17-208): as the sequence (P08637 17-208 F176V limits assumed) above, with V160F counted along it

[8] = biological target: soluble dimeric FcγRIIB-Fc fusion protein (extracellular domain of FcγRIIB fused to hinge-CH2-CH3 of human IgG2) (human) (UniProt P31994); experiment: SPR (BIAcore), Ab captured on BSA-FITC, separate fit 200/800 nM

Sequence of CD32B-G2Ag (human) (P31994 43-217): as the sequence (P31994 43-217) above
Sequence of CD16A(V158) (human) (P08637 17-208 F176V): as the sequence (P08637 17-208 F176V limits assumed) above
Sequence of CD32A-G2Ag (human) (P12318 34-217): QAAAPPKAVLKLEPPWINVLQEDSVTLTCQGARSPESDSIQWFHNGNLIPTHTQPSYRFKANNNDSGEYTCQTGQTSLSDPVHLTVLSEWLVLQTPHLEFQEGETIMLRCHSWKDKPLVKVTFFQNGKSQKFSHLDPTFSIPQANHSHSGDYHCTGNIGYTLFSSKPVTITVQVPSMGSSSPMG
Sequence of CD16A(F158) (human) (P08637 17-208): as the sequence (P08637 17-208 F176V limits assumed) above, with V160F counted along it

Row | fold change vs WT [1] [fold] | Koff WT/Mut [3] | Koff WT/Mut [4] | Substance | Relative rate of lysis (ADCC, vs wild type ch4-4-20) [5] | further results
1 | – | – | – | Antibody 2B6 3.5 Fc Variant 48 (F243L, R292P, V305I) | – | Koff ratio (wt/mut) (CD32A-G2Ag (human)): 0.1 wt/mut; Koff ratio (wt/mut) (CD16A(F158) (human)): 1.4 wt/mut; Koff ratio (wt/mut) (CD16A(V158) (human)): 2.6 wt/mut; Koff ratio (wt/mut) (CD32B-G2Ag (human)): 0.2 wt/mut
2 | – | – | – | Antibody ch2.4G2 Fc Variant 51 (F243L, R292P, Y300L, V305I, P396L) | – | Koff ratio (wt/mut) (CD32A-G2Ag (human)): 1.4 wt/mut; Koff ratio (wt/mut) (CD16A(F158) (human)): 8.3 wt/mut; Koff ratio (wt/mut) (CD16A(V158) (human)): 10.1 wt/mut; Koff ratio (wt/mut) (CD32B-G2Ag (human)): 3.2 wt/mut
3 | 6 | – | – | Fc variant D221Y, M252I, A330G, A339T, T359N, V422I, H433L (antibody) | – | –
4 | 0.5 | – | – | Fc variant D399E, R292L, V185M (antibody) | – | –
5 | 4 | – | – | Fc variant E258D, N384K (antibody) | – | fold change vs WT [2]: 1.25 fold
6 | 7 | – | – | Fc variant K317N, F423-deleted (antibody) | – | –
7 | 3.5 | – | – | Fc variant K370N, S440N (antibody) | – | –
8 | 0.75 | – | – | Fc variant S415I, L251F (antibody) | – | fold change vs WT [2]: 0.5 fold
9 | – | 1.03 | 0.977 | ch4-4-20 MgFc37 (K248M) (antibody) | 3.83 | –
10 | – | 2.3 | 1.64 | ch4-4-20 MgFc38 (K392T, P396L) (antibody) | 3.07 | –
11 | – | 1.3 | 0.86 | ch4-4-20 MgFc39 (E293V, Q295E, A327T) (antibody) | 4.29 | –
12 | – | 1.04 | 0.92 | ch4-4-20 MgFc41 (H268N, P396L) (antibody) | 2.24 | –
13 | – | 2.29 | 1.23 | ch4-4-20 MgFc43 (Y319F, P352L, P396L) (antibody) | 1.09 | –
14 | – | 0.89 | 1.27 | ch4-4-20 MgFc43b (K288R, T307A, K344E, P396L) (antibody) | 3.3 | –
15 | – | 0.85 | 1.29 | ch4-4-20 MgFc49 (K261N, K210M, P396L) (antibody) | 2.06 | –
16 | – | – | – | ch4-4-20 Mut10 (P396L, A330S, K288N) (antibody) | – | ELISA, OD [6]: 1.2 OD; ELISA, OD [7]: 1 OD; ADCC, % [5]: 41%; Kd [8]: 41.3 nM
